The values below come from US20110257102A1 (CASE WESTERN RESERVE UNIVERSITY, published 2011).

Several values for one entry are separate records, joined by “and”; a condition that tells them apart may be missing. Equal values may be shown once.

First the molecules themselves.
B1: GST-tagged FLNa domain 19 (other)
chain: SEIGDASRVRVSGQGLHEGHTFEPAEFIIDTRDAGYGGLSLSIEGPSKVDINTEDLEDGTCRVTYCPTEPGNYIINIKFADQHVPGSPFS
notes: domain: domain 19
B2: GST-tagged FLNa domain 22 (other)
chain: SPSGDARRLTVSSLQESGLKVNQPASFAVSLNGAKGAIDAKVHSPSGALEECYVTEIDQDKYAVRFIPRENGVYLIDVKFNGTHIPGSPFKIRV
notes: domain: domain 22
B3: GST-tagged FLNa domain 18 (other)
chain: RVTGDDSMRMSHLKVGSAADIPINISETDLSLLTATVVPPSGREEPCLLKRLRNGHVGISFVPKETGEHLVHVKKNGQHVASSPIPVVI
notes: domain: domain 18
B4: GST-tagged FLNa domain 17 (other)
chain: DYVNCGHVTAYGPGLTHGVVNKPATFTVNTKDAGEGGLSLAIEGPSKAEISCTDNQDGTCSVSYLPVLPGDYSILVKYNEQHVPGSPFTA
notes: domain: domain 17
B5: GST-tagged FLNa domain 24 (other)
chain: PGPADASKVVAKGLGLSKAYVGQKSSFTVDCSKAGNNMLLVGVHGPRTPCEEILVKHVGSRLYSVSYLLKDKGEYTLVVKWGDEHIPGSPYRVVVP
notes: domain: domain 24
B6: GST-tagged FLNa domain 10 (other)
chain: VPCFDASKVKCSGPGLERATAGEVGQFQVDCSSAGSAELTIEICSEAGLPAEVYIQDHGDGTHTITYIPLCPGAYTVTIKYGGQPVPNFPSKLQV
notes: domain: domain 10
B7: GST-tagged FLNa domain 21 (other)
chain: LGEGGAHKVRAGGPGLERAEAGVPAEFSIWTREAGAGGLAIAVEGPSKAEISFEDRKDGSCGVAYVVQEPGDYEVSVKFNEEHIPDSPFVVPV
notes: domain: domain 21
B8: GST-tagged FLNa domain 11 (other)
chain: EPAVDTSGVQCYGPGIEGQGVFREATTEFSVDARALTQTGGPHVKARVANPSGNLTETYVQDRGDGMYKVEYTPYEEGLHSVDVTYDGSPVPSSPFQVPV
notes: domain: domain 11
B9: GST-tagged FLNa domain 20 (other)
chain: VKVTGEGRVKESITRRRRAPSVANVGSHCDLSLKIPEISIQDMTAQVTSPSGKTHEAEIVEGENHTYCIRFVPAEMGTHTVSVKYKGQHVPGSPFQFTV
notes: domain: domain 20
B10: GST-tagged FLNa domain 23 (other)
chain: GHGGDPGLVSAYGAGLEGGVTGNPAEFVVNTSNAGAGALSVTIDGPSKVKMDCQECPEGYRVTYTPMAPGSYLISIKYGGPYHIGGSPFKAKV
notes: domain: domain 23

One assay addresses recombinant pro-PrP^23-253 (human, UniProt P04156 23-253). Kind of assay: in vitro pull-down with mAb 8H4 and protein G beads, anti-GST immunoblot. Background: Immunoblotting shows a protein as a band on a membrane.
For the molecule B1, the binding result is on record as “no binding”.

Regarding B2, the binding result is listed as “no binding”.

For the molecule B3, the binding result is recorded as “binds”.

Turning to B4, the binding result is on record as “binds”.

B5: the binding result is given as “no binding”.

As to B6, the binding result was “binds”.

For the molecule B7, the binding result is recorded as “binds”.

As for B8, the binding result is listed as “no binding”.

As to B9, the binding result was “binds”.

Consider B10, for which the binding result is listed as “binds”.

For another assay, the target named is filamin A (FLNa) of human tumour cell lines (endogenous) (human) (UniProt P21333). Kind of assay: cell-based or functional assay.
Turning to KKRPK-PrP-GPI-PSS synthetic peptide, the inhibition of cellular motility of A7 cells (wound-healing assay) is 50% and 60%.
